Here are results for one molecule from publication PMC4738285 (Scientific Reports, 2016).

The experiment addresses T1, recombinant human Hsp70 (human, UniProt P0DMV8 1-641).
T1 construct: also called stress-inducible chaperone Hsp70
In words: other fluorescence titration. As to conditions: both partners purified.

T1 sequence (P0DMV8 whole entry): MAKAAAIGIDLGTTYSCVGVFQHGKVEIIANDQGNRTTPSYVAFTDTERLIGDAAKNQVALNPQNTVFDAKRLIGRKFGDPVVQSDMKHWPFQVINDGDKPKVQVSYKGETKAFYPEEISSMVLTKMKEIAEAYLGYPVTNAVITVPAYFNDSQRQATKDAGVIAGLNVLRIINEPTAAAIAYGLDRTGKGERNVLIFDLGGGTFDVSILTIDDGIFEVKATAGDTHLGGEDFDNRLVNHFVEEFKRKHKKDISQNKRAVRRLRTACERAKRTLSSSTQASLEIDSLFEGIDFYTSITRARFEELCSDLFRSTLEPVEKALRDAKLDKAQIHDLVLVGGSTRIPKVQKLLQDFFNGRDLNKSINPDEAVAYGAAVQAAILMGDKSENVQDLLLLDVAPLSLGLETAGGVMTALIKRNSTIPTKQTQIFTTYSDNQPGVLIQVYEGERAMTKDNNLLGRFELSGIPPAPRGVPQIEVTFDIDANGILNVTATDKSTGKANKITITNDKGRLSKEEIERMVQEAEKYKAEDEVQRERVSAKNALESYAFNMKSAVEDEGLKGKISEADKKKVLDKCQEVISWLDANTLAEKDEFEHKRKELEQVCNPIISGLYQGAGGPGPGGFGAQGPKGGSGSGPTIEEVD

B1: peptide NRLLLTG (peptide)
peptide: NRLLLTG
notes: also called NR peptide
Usually IC50 stands for the point on the concentration scale where inhibition reaches its midpoint. Consider B1, for which the IC50 was 11.5 ± 3.8 µM.
